From the supplement of paper PMC9112550, “Optimization of the antimicrobial peptide Bac7 by deep mutational scanning” (BMC Biology, 2022) come the findings set out here.
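Note: peptides expressed intracellularly from a pBAD plasmid library in pooled LB shake-flask culture, induced with 0.3% L-arabinose, DNA abundance read by NGS, three biological replicates, DESeq2 with apeglm shrinkage.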

This data set concerns Escherichia coli TOP10. In words: shrunken log2 fold change of peptide-encoding DNA abundance (4.5 h post-induction vs induction); higher = less antimicrobial activity (less host growth inhibition). To be noted: time post-induction: 4.5 h; library: site-saturation at positions 5, 18, 19, 20.
As to RRIRERPPRLPRPRPRPEGGPRP, the “shrunken log2 fold change” value was found to be 0.361.

For the sequence RRIRNRPPRLPRPRPRPVMAPRP, the “shrunken log2 fold change” value is 0.156.

On to RRIRFRPPRLPRPRPRPQLLPRP, for which the “shrunken log2 fold change” value was 0.0217.

Take RRIRVRPPRLPRPRPRPPRMPRP: the “shrunken log2 fold change” value stood at 0.167.

Take RRIRTRPPRLPRPRPRPKIDPRP: the “shrunken log2 fold change” value is -0.0576.

With RRIRMRPPRLPRPRPRPIQRPRP, the “shrunken log2 fold change” value was determined as 0.544.

Turning to RRIRERPPRLPRPRPRPHALPRP, the “shrunken log2 fold change” value was -0.236.

Turning to RRIRLRPPRLPRPRPRPTWLPRP, the “shrunken log2 fold change” value worked out at 0.584.

In the case of RRIRMRPPRLPRPRPRPWNYPRP, the “shrunken log2 fold change” value was -0.203.

Consider RRIRNRPPRLPRPRPRPNDPPRP, for which the “shrunken log2 fold change” value worked out at 0.188.

Take RRIRTRPPRLPRPRPRPVESPRP: the “shrunken log2 fold change” value came to 0.141.

Consider RRIRSRPPRLPRPRPRPTQAPRP, for which the “shrunken log2 fold change” value stood at 0.0131.

On to RRIRPRPPRLPRPRPRPMDFPRP, for which the “shrunken log2 fold change” value is -0.115.

Turning to RRIRRRPPRLPRPRPRPSPLPRP, the “shrunken log2 fold change” value came to 0.479.

With RRIRWRPPRLPRPRPRPDLNPRP, the “shrunken log2 fold change” value was 0.392.

As for RRIRIRPPRLPRPRPRPSGQPRP, the “shrunken log2 fold change” value is -0.0453.

Regarding RRIRPRPPRLPRPRPRPRHYPRP, the “shrunken log2 fold change” value was 0.101.

With RRIRSRPPRLPRPRPRPMARPRP, the “shrunken log2 fold change” value was determined as 0.101.

Consider RRIRFRPPRLPRPRPRPQKDPRP, for which the “shrunken log2 fold change” value was -0.376.

In the case of RRIRLRPPRLPRPRPRPPDIPRP, the “shrunken log2 fold change” value was -0.0356.

As to RRIRRRPPRLPRPRPRPKPHPRP, the “shrunken log2 fold change” value stood at 0.536.

Consider RRIRNRPPRLPRPRPRPRYCPRP, for which the “shrunken log2 fold change” value is -0.0932.

Take RRIRDRPPRLPRPRPRPLECPRP: the “shrunken log2 fold change” value amounted to 0.0215.

In the case of RRIRSRPPRLPRPRPRPPPCPRP, the “shrunken log2 fold change” value amounted to 0.408.

Turning to RRIRLRPPRLPRPRPRPVAFPRP, the “shrunken log2 fold change” value came to 0.0295.

With RRIRLRPPRLPRPRPRPHYWPRP, the “shrunken log2 fold change” value is -0.356.

RRIRWRPPRLPRPRPRPKFQPRP: the “shrunken log2 fold change” value was -0.00693.

As for RRIRCRPPRLPRPRPRPDIIPRP, the “shrunken log2 fold change” value was -0.132.

For RRIRHRPPRLPRPRPRPGACPRP, the “shrunken log2 fold change” value came to 0.203.

As to RRIRFRPPRLPRPRPRPPYMPRP, the “shrunken log2 fold change” value was -0.43.

For the sequence RRIRERPPRLPRPRPRPNERPRP, the “shrunken log2 fold change” value was -0.105.

For RRIRDRPPRLPRPRPRPWYRPRP, the “shrunken log2 fold change” value is -0.0745.

As to RRIRTRPPRLPRPRPRPQVDPRP, the “shrunken log2 fold change” value is -0.0209.

RRIRCRPPRLPRPRPRPSGPPRP: the “shrunken log2 fold change” value was 0.124.

Take RRIRCRPPRLPRPRPRPINLPRP: the “shrunken log2 fold change” value is -0.355.

For the sequence RRIRERPPRLPRPRPRPPYQPRP, the “shrunken log2 fold change” value is -0.1.

For RRIRSRPPRLPRPRPRPAKVPRP, the “shrunken log2 fold change” value was -0.0898.

Take RRIRTRPPRLPRPRPRPLQCPRP: the “shrunken log2 fold change” value is 0.174.

On to RRIRQRPPRLPRPRPRPMKHPRP, for which the “shrunken log2 fold change” value is -0.373.

For RRIRDRPPRLPRPRPRPHATPRP, the “shrunken log2 fold change” value is 0.985.

In the case of RRIRARPPRLPRPRPRPVRGPRP, the “shrunken log2 fold change” value was 0.945.

Take RRIRVRPPRLPRPRPRPDFSPRP: the “shrunken log2 fold change” value is -0.373.

Consider RRIRFRPPRLPRPRPRPASPPRP, for which the “shrunken log2 fold change” value came out at 0.164.

Turning to RRIRRRPPRLPRPRPRPALKPRP, the “shrunken log2 fold change” value came to 0.366.

In the case of RRIRARPPRLPRPRPRPDSPPRP, the “shrunken log2 fold change” value came out at 0.342.

Take RRIRQRPPRLPRPRPRPHPRPRP: the “shrunken log2 fold change” value amounted to 0.575.

As for RRIRVRPPRLPRPRPRPENSPRP, the “shrunken log2 fold change” value is -0.522.

RRIRKRPPRLPRPRPRPTSIPRP: the “shrunken log2 fold change” value turned out to be 0.208.

RRIRQRPPRLPRPRPRPARSPRP: the “shrunken log2 fold change” value turned out to be 0.0407.

In the case of RRIRCRPPRLPRPRPRPTGFPRP, the “shrunken log2 fold change” value is -0.135.

As for RRIRDRPPRLPRPRPRPLICPRP, the “shrunken log2 fold change” value worked out at 0.347.

Take RRIRLRPPRLPRPRPRPLITPRP: the “shrunken log2 fold change” value was -0.238.

For RRIRMRPPRLPRPRPRPKERPRP, the “shrunken log2 fold change” value stood at 0.0219.

Take RRIRNRPPRLPRPRPRPATPPRP: the “shrunken log2 fold change” value was determined as 0.537.

As for RRIRIRPPRLPRPRPRPNYPPRP, the “shrunken log2 fold change” value is -0.565.

For RRIRERPPRLPRPRPRPVLSPRP, the “shrunken log2 fold change” value was -0.101.

For RRIRARPPRLPRPRPRPLHYPRP, the “shrunken log2 fold change” value is -0.174.

Consider RRIRNRPPRLPRPRPRPDNLPRP, for which the “shrunken log2 fold change” value is -1.04.

Turning to RRIRYRPPRLPRPRPRPSPAPRP, the “shrunken log2 fold change” value turned out to be 0.156.

As to RRIRERPPRLPRPRPRPKYFPRP, the “shrunken log2 fold change” value was -0.0979.

On to RRIRERPPRLPRPRPRPKNKPRP, for which the “shrunken log2 fold change” value is -0.559.

For the sequence RRIRNRPPRLPRPRPRPMRNPRP, the “shrunken log2 fold change” value came out at 0.115.
